The record followed here is paper PMC8322407 (Communications Biology, 2021).

For series [1], the target named is T1, mouse Arg1 (Mus musculus (Mouse)., UniProt Q61176).
T1 construct: Mouse arginase 1; construct not described; also called mouse arginase
Kind of series: enzyme inhibition kinetics; Thioarginine to thioornithine assay; 1 nM human or mouse arginase incubated 30 min at room temperature with fixed antibody concentrations, variable thioarginine; 50 mM Tris pH 7.5, 50 mM NaCl, 1 mM Mn chloride, 0.05% BSA; competitive inhibition model. The settings on record: both partners purified.

In series [2] the target is T2, Human Arginase 1 (hArg1), trimeric (human, UniProt P05089).
T2 construct: Human arginase 1, full-length, untagged; trimeric metalloenzyme, each monomer ~35 kDa; buffers contained MnCl2 (the SPR buffer contained 3 mM EDTA); also called trimeric hArg1; human Arg1; source: E. coli BL21 (DE3), purified (heat treatment, HiTrap-SP, Superdex 200)
Kind of series: cryo-EM structure; hArg1 and full-length mAb mixed at 3:1 molar ratio in 25 mM HEPES pH 7.4, 150 mM NaCl, 1.0 mM MnCl2, incubated 30 min; diluted to ~75 uM monomeric arginase, DDM added to the CMC. The settings on record: both partners purified.

Series [3] deals with the molecule itself. Described as above.
The target in series [4] is T2, Human Arginase 1 (hArg1), trimeric. Kind of series: enzyme inhibition kinetics; Thioarginine to thioornithine assay; 1 nM human or mouse arginase incubated 30 min at room temperature with fixed antibody concentrations, variable thioarginine; 50 mM Tris pH 7.5, 50 mM NaCl, 1 mM Mn chloride, 0.05% BSA; competitive inhibition model. The note with it: both partners purified.

The target is the same in series [5]. Kind of series: SPR; Antibody captured on an anti-mouse IgG or anti-human Fc surface (CM5 chip, Biacore T200 or 4000); human ARG1 injected, twofold dilutions from 100 nM; 10 mM HEPES, 150 mM NaCl, 0.05% P20, 3 mM EDTA, pH 7.4; 25 °C; 1:1 binding model. The note with it: both partners purified.
The target in series [6] is T3, Monomeric hArg1 (Arg308 mutated to alanine) (Homo sapiens (Human)., UniProt P05089, Arg308 to an alanine residue).
T3 construct: Human arginase 1 with Arg308 at the monomer interface mutated to alanine, which gives a monomer; also called monomeric human ARG1
Described as above. The note with it: both partners purified.

T1 sequence (Q61176 whole entry): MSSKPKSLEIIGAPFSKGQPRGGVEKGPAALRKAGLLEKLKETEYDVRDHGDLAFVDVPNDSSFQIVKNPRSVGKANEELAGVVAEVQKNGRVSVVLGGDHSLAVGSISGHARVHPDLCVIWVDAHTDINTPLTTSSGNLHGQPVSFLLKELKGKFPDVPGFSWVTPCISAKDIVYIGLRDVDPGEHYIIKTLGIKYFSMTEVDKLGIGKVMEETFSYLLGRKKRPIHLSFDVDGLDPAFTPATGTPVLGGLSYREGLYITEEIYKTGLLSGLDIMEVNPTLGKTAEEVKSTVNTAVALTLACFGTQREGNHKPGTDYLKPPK

B1: mAb5 (antibody, V domains shown)
VH: EVQLVESGGGVVRPGGSLRLSCAASGFTFDDYGMTWVRQAPGKGLEWVSGINWNGGSTGYADSVKGRFTISRDNAKNSLYLQMNSLRAEDTALYHCARDRRRGSYGSDAFDIWGQGTMVTVSS
VL: DIQMTQSPSSLSASVGDRVTITCRASQGISNYLAWYQQKPGKVPQLLISAASTLQSGVPSRFSGSGSGTDFTLTISSLQPEDVATYYCQKYNSAPRTFGQGTKVEIK
notes: Human heavy chain variable domain from a transgenic (Trianni) mouse immunization; heavy chain of the Fab in PDB 7LEY; Human light chain variable domain from a transgenic (Trianni) mouse immunization; light chain of the Fab in PDB 7LEY; Mouse kappa light chain constant region (mouse IgG1 D265A/kappa backbone); Full-length mAb, human variable regions on a mouse IgG1 D265A/kappa backbone; source: …
In the case of B1, in series [1], the affinity corresponds to a Ki of 25 ± 1.7 nM. The binding result in series [2] is given as “binds”.

B2: Human Arginase 1 (hArg1), trimeric (enzyme, UniProt P05089 1-322, looked up)
chain: MSAKSRTIGIIGAPFSKGQPRGGVEEGPTVLRKAGLLEKLKEQECDVKDYGDLPFADIPNDSPFQIVKNPRSVGKASEQLAGKVAEVKKNGRISLVLGGDHSLAIGSISGHARVHPDLGVIWVDAHTDINTPLTTTSGNLHGQPVSFLLKELKGKIPDVPGFSWVTPCISAKDIVYIGLRDVDPGEHYILKTLGIKYFSMTEVDRLGIGKVMEETLSYLLGRKKRPIHLSFDVDGLDPSFTPATGTPVVGGLTYREGLYITEEIYKTGLLSGLDIMEVNPSLGKTPEEVTRTVNTAVAITLACFGLAREGNHKPIDYLNPPK
notes: Human arginase 1, full-length, untagged; trimeric metalloenzyme, each monomer ~35 kDa; buffers contained MnCl2 (the SPR buffer contained 3 mM EDTA); also called trimeric hArg1; human Arg1; source: E. coli BL21 (DE3), purified (heat treatment, HiTrap-SP, Superdex 200)
In the case of B2, the “stoichiometry N” value in series [3] is 3.

B3: mAb1 (antibody, V domains shown)
VH: QVQLVQSGAEVKKPGASVKVSCKASGYTFTNYGISWVRQAPGQGLEWMGWISAYNGNTNYAQKLQGRVTMTTDTSTSTAYMELRSLRSDDTAVYYCAREGAYGYRSPYHNWFDPWGQGTLVTVSS
VL: EIVMTQSPATLSLSPGERATLSCRASQSVSSYLAWYQQKPGQAPRLLIYDASNRATGIPARFSGSGSGTDFTLTISSLEPEDFAVYYCQQHSLLPRTFGGGTKVEIK
notes: Human heavy chain variable domain from yeast display; heavy chain of the Fab in PDB 7LEX and 7LEZ; Mouse IgG2a heavy chain constant region (backbone); Human light chain variable domain from yeast display; light chain of the Fab in PDB 7LEX and 7LEZ; Mouse kappa light chain constant region (mouse IgG2a/kappa backbone); Full-length mAb, human variable regions on a mouse IgG2a/kappa backbone; The Fc …
In series [4], B3 returned an inhibition constant (Ki) of 3.3 ± 0.3 nM.

B4: mAb2 (antibody, V domains shown)
VH: QVQLVQSGAEVKKPGASVKVSCKASGYTFTNYGISWVRQAPGQGLEWMGWISAYNGNTNYAQKLQGRVTMTTDTSTSTAYMELRSLRSDDTAVYYCAREGAYGYRSPYHNWFDPWGQGTLVTVSS
VL: EIVMTQSPATLSLSPGERATLSCRASQSVSSYLAWYQQKPGQAPRLLIYDASNRATGIPARFSGSGSGTDFTLTISSLEPEDFAVYYCQQHSLLPRTFGGGTKVEIK
notes: Human heavy chain variable domain, identical to that of m3 (mAb1); heavy chain of the Fab in PDB 7LF0; Human light chain variable domain, identical to that of m3 (mAb1); light chain of the Fab in PDB 7LF0; Mouse kappa light chain constant region (mouse IgG1 D265A/kappa backbone); Full-length mAb; differs from mAb1 only in the constant domains; also called mAbs1-3 (member); source: ExpiCHO-S, …
B4 had an inhibition constant (Ki) in series [4] of 5.3 ± 0.8 nM.

B5: mAb4 (antibody, V domains shown)
VH: EVQLVQSGAEVKKPGASVKVSCKASGYTFTDYYMNWVRQAPGQGLEWIGVISPYNGGTTYNQKFKGKATLTVDKSTSTAYMELSSLRSEDTAVYYCVYDLYYFDYWGQGTLVTVSS
VL: EIVLTQSPATLSLSPGERATLSCRASQRISNDLHWYQQKPGQAPRLLIKYASQSISGIPSRFSGSGSGTDFTLTISSLEPEDFAVYYCQQSNSWPRTFGGGTKLEIK
As to B5, the Kd in series [5] came to 0.56 nM; in series [6] it was 20 nM.
